Test results: patent US20260217764A1, “SELECTIVE INHIBITORS OF C. ACNES HYALURONIDASE” (priority 2022, published 2026)
Square brackets hold non-standard residues; d marks the D form. Ends that are not written are not given here. Peptide text beside a SMILES is read from it.

Key:
[1] = biological target: C. acnes hyaluronidase HylA, recombinant (rHylA), fluorescently labeled (C. acnes); test: not given; MST against fluorescent labeled HylA per the methods
[2] = biological target: C. acnes hyaluronidase HylA, recombinant (rHylA), fluorescently labeled (C. acnes); test: Microscale thermophoresis (MST), peptide titrated against fluorescent labeled HylA
HylA = biological target: T1, HylA (Cutibacterium acnes, UniProt A0A2B7ICX0); test: Microscale thermophoresis (MST) measurement of HylA binding to peptide inhibitors; parameters: species or system C. acnes
T1 construct: HylA (41-805) were cloned into; His6 (N); MBP (N); made in house; host or cells: E. coli BL21(DE3) pLysS
Protocol: The Monolith NT.115 instrument (Nanotemper Technologies, München, Germany) was used to measure the binding of peptide inhibitors to the HylA. For the MST experiment, the HylA is fluorescently labeled by cysteine labeling by using the Monolith protein labeling kit RED-MALEIMIDE 2nd generation (Catalog Number: L014). The assay is performed in 100 mM Sodium acetate buffer pH 5.3 supplied with 0.05% Tween-20. A serial dilution of the 1932 peptide (50 μM through 1.5 nM) was titrated against 30 nM fluorescent labeled HylA. For the titration, 10 μL of each concentration of the peptide was mixed with 10 μL of the fluorescent labeled HylA. The MST measurement settings include medium MST power, 40% excitation power, Nano-RED excitation type and 25° C. thermostat temperature. Affinity of the peptide binding to HylA was determined by the MO.Affinity Analysis Software (Nanotemper Technologies, München, Germany).

rHylA = biological target: T2, rHylA (Cutibacterium acnes, UniProt A0A2B7ICX0); test: HA digested with rHylA in presence of inhibitor, digest applied to HaCaT cells, IL-6 by ELISA; format: cell-based, C. acnes; conditions: inhibitor 5 or 10 μM, HA 2 mg/ml digested with rHylA 24 hr, IL-6 in HaCaT culture supernatant
T2 construct: HylA (41-805) were cloned into; His6 (N); MBP (N); made in house; host or cells: E. coli BL21(DE3) pLysS
Protocol: HaCaT cells (ATCC) were cultured in complete DMEM media (Catalog no. 10-013-CV, Corning incorporated, USA) plus 10% heat-inactivated FBS in 5% C02 at 37° C. Before cell stimulation with digested HA (40 μg), HaCaT cells were seeded in 96-wells Falcon® 96-well tissue culture plate (Catalog no. #353072, corning incorporated, USA) at a concentration of 10^5 cells/ml and incubated in 5% CO2 at 37° C. for 6 hr, followed by washing with DMEM media and cell stimulation.
For BMDMs and HaCaT cell assays, an equivalent of 40 μg of HA digest was used to stimulate 10^5 cells for 8 and 16 hr, respectively. Cells were plated in a Falcon® 96-well tissue culture plate and cultured in 200 μl of complete RPMI medium supplemented with 10% FBS and 1× penicillin-streptomycin antibiotics solution. […]
IL-1β, IL-6, and TNF-α cytokine levels in skin homogenates, previously stored at −80° C., were measured by a solid-phase sandwich ELISA using commercially available mouse cytokine ELISA kits (Biolegend, San Diego, CA, USA). […] The plates were developed and read at optical density (OD) of 450 nm with a wavelength correction set to 570 nm in a multimode microplate reader (PerkinElmer, Waltham, MA, USA). […]

HL043PA1 strain = test: Mouse acne model, inhibitor co-injected i.d. with acne-associated HL043PA1 strain; format: in vivo, C. acnes; conditions: CD1 mice, 10 μg inhibitor co-injected i.d. with 2×10^7 CFU HL043PA1, disease score and skin cytokines 24 hr post-infection
Protocol: To model human acne disease, 8 weeks-old mice were i.d. infected with C. acnes strains (2×10^7 CFU in 50 μl volume of BHI media), followed by the topical application of synthetic sebum daily as described previously. i.d. infections were performed under vaporized Isoflurane (Fluriso, Vet One) anesthesia. Synthetic sebum was made by mixing fatty acid (17% oleic acid; Catalog no. #01008, Millipore Sigma), triglyceride (45% triolein; Catalog no. #ICN10312201, FisherScientific), wax monoester (25% jojoba oil, Trader Joe), and squalene (13%; Catalog no. #AC215351000, FisherScientific). One or two days after infection, disease score was assessed and the mice were euthanized by C02. Skin lesions were aseptically excised and harvested in phosphate buffer saline (PBS, pH 7.4). […]
Gross skin pathology was scored based on tabulation of the following: Erythematous change (no=0, mild=1, moderate 2, and marked=3); papule (flat=0, small=1, large=2. And extra-large=3) based on a protocol modified from.
For in vivo experiments, inhibitors (10 μg) were injected along with C. acnes strains (2×10^7 CFU) i.d. into CD1 mice, followed by the topical application of sebum. After 24 hr, bacterial count (CFU/ml), size of the skin lesions and proinflammatory cytokines (IL-1β, IL-6 and TNF-α) in skin lesions were measured. […]

[3] = biological target: T3, C. acnes hyaluronidase HylA, recombinant (rHylA), fluorescently labeled (C. acnes, UniProt A0A2B7ICX0 41-805, Fluorescently labelled on cysteine(s) with the RED-MALEIMIDE 2nd generation dye. Which cysteine carries the dye is not stated.); test: not given; MST against fluorescent labeled HylA per the methods
T3 construct: TEV cleavage is described only for the crystallization preparation; not shown: N-terminal His6-MBP-TEV tag from the pET His6 MBP TEV LIC vector
T3 sequence: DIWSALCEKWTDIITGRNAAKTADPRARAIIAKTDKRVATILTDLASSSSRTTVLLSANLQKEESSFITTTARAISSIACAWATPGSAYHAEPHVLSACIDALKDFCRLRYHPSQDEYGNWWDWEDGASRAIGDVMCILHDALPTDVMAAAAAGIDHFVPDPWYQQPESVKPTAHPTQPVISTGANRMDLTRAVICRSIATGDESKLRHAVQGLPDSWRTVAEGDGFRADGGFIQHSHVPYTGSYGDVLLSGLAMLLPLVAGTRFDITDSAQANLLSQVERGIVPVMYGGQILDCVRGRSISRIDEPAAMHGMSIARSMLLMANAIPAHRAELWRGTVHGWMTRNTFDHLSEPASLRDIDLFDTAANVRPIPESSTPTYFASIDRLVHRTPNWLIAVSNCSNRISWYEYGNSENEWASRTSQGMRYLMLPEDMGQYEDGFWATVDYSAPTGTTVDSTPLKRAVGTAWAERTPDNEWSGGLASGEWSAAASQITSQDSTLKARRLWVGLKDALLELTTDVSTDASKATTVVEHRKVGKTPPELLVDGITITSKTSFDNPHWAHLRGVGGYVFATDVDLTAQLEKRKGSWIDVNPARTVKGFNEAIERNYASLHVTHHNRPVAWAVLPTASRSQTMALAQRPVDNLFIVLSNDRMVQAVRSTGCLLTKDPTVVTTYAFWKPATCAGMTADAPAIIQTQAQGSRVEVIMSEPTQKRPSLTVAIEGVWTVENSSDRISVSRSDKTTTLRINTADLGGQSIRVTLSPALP

[4] = biological target: T3, C. acnes hyaluronidase HylA, …; test: Microscale thermophoresis (MST), peptide titrated against fluorescent labeled HylA
[5] = biological target: T3, C. acnes hyaluronidase HylA, …; test: microscale thermophoresis (MST), peptide titrated against fluorescently labeled HylA, Kd model fit, mean +/- SD of triplicates
[6] = binding constant (KD), MST, peptide titrated against 30 nM fluorescent labeled HylA, values in running text and figure legend

“peptide i93, Tyr-Asp-dGlu-Tyr-dGlu-Ser-dGlu-NH2” gave a Kd [1] of 140 µM and a Kd [2] of 912 µM.

Molecule `N[C@@H](Cc1ccc(O)cc1)C(=O)N[C@@H](CC(=O)O)C(=O)N[C@H](CCC(=O)O)C(=O)N[C@@H](Cc1ccc(O)cc1)C(=O)N[C@H](CCC(=O)O)C(=O)N[C@@H](CO)C(=O)N[C@H](CCC(=O)O)C(=O)O` [i94, Tyr-Asp-dGlu-Tyr-dGlu-Ser-dGlu-OH] (H-YD[dE]Y[dE]S[dE]-OH; N-terminus assumed) has a Kd (HylA; KD, table Peptides' properties) of 4.3 µM.

`NC(=O)[C@@H](CCC(=O)O)NC(=O)[C@H](CO)NC(=O)[C@H](CC(=O)O)NC(=O)[C@H](Cc1ccc(O)cc1)NC(=O)[C@@H](CCC(=O)O)NC(=O)[C@H](CC(=O)O)NC(=O)[C@H](Cc1ccc(O)cc1)NC(=O)[C@@H](CCC(=O)O)NC(=O)[C@H](CO)NC(=O)[C@@H](CCC(=O)O)NC(=O)[C@H](Cc1ccc(O)cc1)NC(=O)[C@@H](CCC(=O)O)NC(=O)[C@H](CC(=O)O)NC(=O)[C@@H](N)Cc1ccc(O)cc1` [i932, Tyr-Asp-dGlu-Tyr-dGlu-Ser-dGlu-Tyr-Asp-dGlu-Tyr-Asp-Ser-dGlu-NH2] (H-YD[dE]Y[dE]S[dE]YD[dE]YDS[dE]-NH2; N-terminus assumed) was tested, and the Kd (HylA; [6]) was 3.06 µM, the Kd (HylA; binding constant (KD), MST, peptide titrated against fluorescent labeled HylA, value) was 0.0216 µM and the efficacy in vitro (rHylA) was “highest efficacy”. For the same molecule, the efficacy in vivo (HL043PA1 strain) was “highest efficacy”.

In the case of `NC(=O)[C@@H](CCC(=O)O)NC(=O)[C@H](CO)NC(=O)[C@@H](CCC(=O)O)NC(=O)[C@H](Cc1ccc(O)cc1)NC(=O)[C@@H](CCC(=O)O)NC(=O)[C@H](CC(=O)O)NC(=O)[C@@H](N)Cc1ccc(O)cc1` [i93, Tyr-Asp-dGlu-Tyr-dGlu-Ser-dGlu-NH2] (H-YD[dE]Y[dE]S[dE]-NH2; N-terminus assumed), the Kd (HylA; KD, table Peptides' properties) is reported as 140 µM and the Kd (HylA; [6]) is reported as 911 µM.

With “peptide i94, Tyr-Asp-dGlu-Tyr-dGlu-Ser-dGlu-OH” the Kd [1] was 4.3 µM.

With YCD[dE]Y[dE]S[dE]CY-NH2 (also: cyclic peptide with Cys2 and Cys9, mode of cyclization not given here, also called 1933) [peptide i933, Tyr-Cys-Asp-dGlu-Tyr-dGlu-Ser-dGlu-Cys-Tyr-NH2] the Kd [3] was 292 µM, the Kd [4] was 1.76 µM and the “EC50 (read off the curve)” value [5] was about 2 µM.

B1: peptide i932, Tyr-Asp-dGlu-Tyr-dGlu-Ser-dGlu-Tyr-Asp-dGlu-Tyr-Asp-Ser-dGlu-NH2 (peptide)
peptide: YD[dE]Y[dE]S[dE]YD[dE]YDS[dE]-NH2
modifications: N-terminus assumed
SMILES: NC(=O)[C@@H](CCC(=O)O)NC(=O)[C@H](CO)NC(=O)[C@H](CC(=O)O)NC(=O)[C@H](Cc1ccc(O)cc1)NC(=O)[C@@H](CCC(=O)O)NC(=O)[C@H](CC(=O)O)NC(=O)[C@H](Cc1ccc(O)cc1)NC(=O)[C@@H](CCC(=O)O)NC(=O)[C@H](CO)NC(=O)[C@@H](CCC(=O)O)NC(=O)[C@H](Cc1ccc(O)cc1)NC(=O)[C@@H](CCC(=O)O)NC(=O)[C@H](CC(=O)O)NC(=O)[C@@H](N)Cc1ccc(O)cc1
notes: Designed by structure-based virtual screening against the HylA crystal structure; also called 1932
Work on B1 yielded a Kd [3] of 3.1 µM.
